{"source": "the nanobody polyreactivity screen of Harvey et al. (2022)"}
{"test": "yeast display, Sf9 membrane polyspecificity reagent, FACS + sequencing; frameworks hold sequencing errors", "how_it_was_run": "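Galactose induction of a Saccharomyces cerevisiae BJ5465 synthetic nanobody display library ran 36–48 hours. The cells were then stained for 1 hour at 4 °C with 10% biotinylated, detergent-solubilized Sf9 membrane reagent, pulled down on streptavidin microbeads and FACS-sorted into low and high (top ~1%) gates on expression and reagent-binding fluorescence. Labels for polyreactivity follow the gate of origin.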"}
{"sequence": "QFQLVESGGGLVQAGGSLRLSCAASGRIVGRNAMGWYRQAPGKERELVAAISGNGGSTYYADSVKGRFTISRDNAKINVYLQMNSLKPEDTAVYYCATKYFSRMDYWGKGTQVTVSS", "polyreactivity (PSR sort gate)": "high polyreactivity"}
{"sequence": "QFQLVESGGGLVQAGGSLRLSCAASGRIYGYYALGWYRQAPGQERELVATITFGGGSTYYTDSVKGRFTISRDNAKNTVSLQMNSLKPEDTALYYCAADSGYLGIYGDEYSWGHGTQVTVSS", "polyreactivity (PSR sort gate)": "low polyreactivity"}
{"sequence": "QFQLVESGGGLVQAGGSLRLSCAASGRSFNRNAMGWYRQAPGKERELVAAISRSGTRTYYADSVKGRFTISRDNAKNTVYLQMNSLKPEDTAVYYCNALRVDGGDYWGQGTQVTVSS", "polyreactivity (PSR sort gate)": "high polyreactivity"}
{"sequence": "QFQLVESGGGLVQAGGSLRLSCAASGRTFASNAMGWYRQAPGKERELVADITWDGGRTYYADSVKGRFTISRDNAKNTVYLQMNSLKPEDTAVYYCAARDTFPRRYGYWGQGTQVTVSS", "polyreactivity (PSR sort gate)": "high polyreactivity"}
{"sequence": "QFQLVESGGGLVQAGGSLRLSCAASGRTFGFNAMGWYIQAPGKERELVAAISGSGGRTYYADSVKGRFTISRDKPKNTVYLQMNSLKPEDTAVYYCAAGARRGGSGYLGQGTQVTVSS", "polyreactivity (PSR sort gate)": "high polyreactivity"}
{"sequence": "QFQLVESGGGLVQAGGSLRLSCAASGRTFKVYAMGWYRQAPGKERELVAAITGGGSTNYADSEKGRFTISRDNAKNTVYLQMNRLKAEDTAVYYGNARYYYRLVKWSRFSSYDYWGQGTQVTVSS", "polyreactivity (PSR sort gate)": "low polyreactivity"}
{"sequence": "QFQLVESGGGLVQAGGSLRLSCAASGRTFSRTAMGWYRQAPGKERELVAAITKGGGSTYYADSVKGRFTISRDNAKNTVYLQMNSLKPEDTAVYYCAAYKPSTRRYDYWGQGTQVTVSS", "polyreactivity (PSR sort gate)": "high polyreactivity"}
{"sequence": "QFQLVESGGGLVQAGGSLRLSCAASGRTFWYYDMGWYRQAPGKERELFATITSGGSTNYADSVKGRFTISRDNAKNTVYLQMNSLKPEDTAVYYCAAARWRWQLARDDYWGQGTQVTLSS", "polyreactivity (PSR sort gate)": "high polyreactivity"}
{"sequence": "QFQLVESGGGLVQAGGSLRLSCAASGSIFYGYAMGWYRQAPGKERELVAAITSSNGSTYYADSVKGRFTISRDNEKNTVYLQMNSLKPEDTAVYYCAADVHGSYYIKPNVWYDYWGQGTQVTVSS", "polyreactivity (PSR sort gate)": "low polyreactivity"}
{"sequence": "QFQLVESGGGLVQAGGSLRLSCAASGSIFYGYTMGWYRQEPGKERELLAAIRKSGGSTNYADSVKGRFTISRDNAKNTVYLQMNSLKPEDTAVYYCSASYYRGRGYYWGQGTQVTVSS", "polyreactivity (PSR sort gate)": "high polyreactivity"}
{"sequence": "QFQLVESGGGLVQAGGSLRLSCAASGSTFAFYAMGRYRQAPGKERELVPAINLGGGSTYYAASVKGRFTISRDNAKNTVYLQMNSLKPEDTAVYYCAADFWTISWPVFDTYEYWGQGTQVTVSS", "polyreactivity (PSR sort gate)": "low polyreactivity"}
{"sequence": "QFQLVESGGGLVQAGGSLRLSCAASGSTFIRYAMGWYRQAPGKERELVAAISRSGGNTYYADSVKGRFTISRDKAKNTVYLQMNSLKPEDTAVYYCNKDRQQALNYWGQGTQVNVSS", "polyreactivity (PSR sort gate)": "high polyreactivity"}
{"sequence": "QFQLVESGGGLVQAGGSLRLSCAASGSTFITNAMGCYRQAPGKERELVASITRGAGSTYYADSVKGRITISRDNAKNTVYLQMNSLKPEDTAVYYCRLAPRYRKGGYWGQGTQVTVSS", "polyreactivity (PSR sort gate)": "high polyreactivity"}
{"sequence": "QFQLVESGGGLVQAGGSLRLSCAASGSTFIYYTMGWYRQAPGKERELVAAIPSSGGSTYYADSVKGRFTISRDNAKNTVYFQMNSLKPEDTAVYYCAADGTYIKFAKLYRRYDYWGQGTQVTVSS", "polyreactivity (PSR sort gate)": "low polyreactivity"}
{"sequence": "QFQLVESGGGLVQAGGSLRLSCAASGSTFLLYAMGWYRQAPGKEREFVASISGDGSSNYADSVKGRFTISRDNAKITVYLQMNSLKPEDTAVYYCAAVLLDPDSTLESGGNFDYWGQGTQVTVSS", "polyreactivity (PSR sort gate)": "low polyreactivity"}
{"sequence": "QFQLVESGGGLVQAGGSLRLSCAASGSTFVFYAMGWYRQAPGKQRELVATISTGGSTYADSVKGRFTISRDNAKNTVYLQMNSLKPEDTAVYYCAADSLFGHYDYSGQGTQVTVSS", "polyreactivity (PSR sort gate)": "low polyreactivity"}
{"sequence": "QFQLVESGGGLVQAGGSLRLSCAASVLTFSAYAMGWYRQAPGKEREFVAAITDSDGSTYYADYVKGRFTISRDNEKNTVYLQMNSLKPEDTAVYYCAASGSWYYGYWSGGYDYWGQGTQVTVSS", "polyreactivity (PSR sort gate)": "low polyreactivity"}
{"sequence": "QFQLVESGGGLVQAGGSLRLSCAATGSIIGANAMGWYRQAPGKERELVAAISTRGGRTYYADSVKGRFTISRDNAKNTVYLQMNSLKPEDTAVYYCATSGGRPYKYEYWGQGTQVTVSS", "polyreactivity (PSR sort gate)": "high polyreactivity"}
{"sequence": "QFQLVESGGGLVQAGGSLRLSCADSGRILRFYAMGWYRQAPGKERELVAAISWTGGRTYYADSVKGRFTISRDNAKNTVYLQMNSLKPEDTAVYYCAAEVFTTGSFRRYDYWGQGTQVTVSS", "polyreactivity (PSR sort gate)": "high polyreactivity"}
{"sequence": "QFQLVESGGGLVQAGGSLRLSCADSVRTLYRNVMVWYRHAPVKERELVAAISLSGGSTYYEDSVKGRFTISRDNANYTVYLQMNSMKPEYTAVYYCAVKRPYCPGEYGYWGQGTQVTVSS", "polyreactivity (PSR sort gate)": "high polyreactivity"}
{"sequence": "QFQLVESGGGLVQAGGSLRLSCASSGIIFKRYAMGWYRQAPGNERELVAAISTSGSTYYADSVKGRFTISRDNAKNTVYLQMNSLKPEDTAVYYCAAGRWWRYFTWHGYWGQGTQVTVSS", "polyreactivity (PSR sort gate)": "high polyreactivity"}
{"sequence": "QFQLVESGGGLVQAGGSLRLSFAASGFIFGLYAMGWYRQAPGIETELVAAISGSGGSTYYADSVKGRFTISRDNAKNTVYLQMNSLKPEDTAVYYCNRAQGVHTYVYRYGYWGQGTQVTVSS", "polyreactivity (PSR sort gate)": "low polyreactivity"}
{"sequence": "QFQLVESGGGLVQAGGSLRLSSAASGSIFRSYAMGWYRQAHGKERELVAAISSRSGSTYYADSVKGRFTISRDNAKNTVYLQMNSLKPEETAVYYCAAQHRHSYGYWGQGTQVTVSS", "polyreactivity (PSR sort gate)": "high polyreactivity"}
{"sequence": "QFQLVESGGGLVQAGGSLSLSCAASGSTLQSYAMGWYRQAPGKERELVAGIRISGGNTRYADSVKGRFTISRDNAKNTVYLQMNSLIPEDTAVYYCAALTGFYNLRPYGYWGQGTQVTVSS", "polyreactivity (PSR sort gate)": "high polyreactivity"}
{"sequence": "QFQLVESGGGLVQARGSLRLSCAPSGRTFGIYTMGWYRPAPGKERELVAAISAGGGRTSYADSVKGRFTISRDHAKNTVYLQMMSLKPEDTAVYYCAARVYQYRNEDTTRRAGRSYWGQGTQVTVSS", "polyreactivity (PSR sort gate)": "high polyreactivity"}
{"sequence": "QFQLVESGGGLVQEGGSLRLSCAPSGSTFRFYAMGWYRQSPGKERELVAVISSAGSTNYADSVKGRFTISRDNAKNTVYLQMNSLKPEDTAVYYCAAYRRYSIYNYWGEGTQVTVSS", "polyreactivity (PSR sort gate)": "high polyreactivity"}
{"sequence": "QFQLVESGRGIVQAGGSLRLSCAASGFTFGPSAMVWYRQAPGKERELVAVISRSGGRTYYADSVKGRFTISRDNAKNTVYLQMNSLKPEDTAVYYCAAAGYGNDGYDYWGQGTQVTVSS", "polyreactivity (PSR sort gate)": "high polyreactivity"}
{"sequence": "QFQLVESGRGLVQAGGSIRLSCAASGSIFRWYAMGWSRQAPGKERELVAAISYGGGSTYYADSVKGRFTISRDNAKNTVYLQMNRLKPEDTAVYYCNRGYPSTLYDYWGQGTQVTVSS", "polyreactivity (PSR sort gate)": "high polyreactivity"}
{"sequence": "QFQLVESGRGLVQAGGSLRLSCAASGLIFRYYAMGWYRQAPGKERELVAAIRTGGSTYYADSVKGRFTISRDNAKNTVYLQMNSLKPEDTAVYYCAALLLSWYRTSYDFDYWGQGTQVTVSS", "polyreactivity (PSR sort gate)": "high polyreactivity"}
{"sequence": "QFQLVESGVGLVQAGASLRLSCAASVLTFVGNAMGWYRQAPGKERELVDAISKRGGRTYYADSVKGRFRISRDNAKNTVYLQMNSLKPEDTAVYYCAATIKAYPTPLLGDYWGQGTQVTVSS", "polyreactivity (PSR sort gate)": "high polyreactivity"}
{"sequence": "QFQLVESGVGLVQAGGSLRLSCAASGRTSGSYAMGWYRQAPGKERELVAVITTSDGSTYYADSVKGRFTISRDNAKNTVYLQMNSLKPEDTEVYYCNVDYPNLWYDSYYYWGQGTEVTVSS", "polyreactivity (PSR sort gate)": "low polyreactivity"}
{"sequence": "QFQLVESWGGLVQAGGSLRLSCAASGYIFGYVMGWYRQAPGKERELVAAITYSSGNTYYADSVKGRFTISRDNAKNTVYLQMNSLKPEDTAVYYCAKQAYYKGRLAYGYWGQATQVTVSS", "polyreactivity (PSR sort gate)": "high polyreactivity"}
{"sequence": "QFQLVETGGGIVHAGGSLRLSCAASGSTFWYYAMGWYRQAPGKERELVAGITQSGGSTYYADSVKGRFTISRDNAKNTVYLQMNSLKPEDSAVYYFAKDGRVSGDFVYWGQGTQVTVSS", "polyreactivity (PSR sort gate)": "low polyreactivity"}
{"sequence": "QFQLVETRRGLVQAGGSLRLSCAASGSIFLENAMRRYRQAPGKERELVAVINSGDSTYYADSVKGRFTMSRDNAKNTVYLQMNSLKPEDTSVYYCAADRDVRTRVFSYDYWGQGTQVTVSS", "polyreactivity (PSR sort gate)": "low polyreactivity"}
{"sequence": "QGHLVESGGGLFQAGGSLRLSCAASGSILSYYALGRYRQAPGKEMEMVAVINSGGRTNYADAVKGRFTISRDNAKYTVYLQMNSLKTEDTAVYDCAAQGYFVDRAGRYYRVDYRGQGTQVTVSS", "polyreactivity (PSR sort gate)": "high polyreactivity"}
{"sequence": "QGQLEDSGGGLVQAGGSLRLSCAASGLTYDHNAMGWYRNATGKEREFFAVISWRGTSTYYADSVKGRFTISRDNAKNTVFLQMHSLKPEDTAVYYCATRYYGDDVYRYDHWGQGTQVTVSS", "polyreactivity (PSR sort gate)": "high polyreactivity"}
{"sequence": "QGQLEESGGGLVQAGGSLRLSCAASGFTIYRYAKGWYRQAPGKAMELVAAISNSGGSTYYADSVKGRFTISRDNAKNTVYVQMNSLKPEDTAVYYCAADPGYNVYGYYYWGQGTQVTVSS", "polyreactivity (PSR sort gate)": "high polyreactivity"}
{"sequence": "QGQLVEAGGGLVQAGGSLRLSCAASGNTFKKYARGWYRQAPGKERELVAAISNGGSTTYADSVKGRFTISLDTAKNTVYLQMNSLKPEDTAVYYCNAGRPYGTQKRYDYWGQGTQVTVSS", "polyreactivity (PSR sort gate)": "low polyreactivity"}
{"sequence": "QGQLVESGAGLVQAGGSLRLSCAASGFIFYDYVMGWYRQAPGKERELVAAITGSGGGTYYADSVKGRFTISRDNAKNTVYLQMNSLKPEDTAVYYCAADYISVYGYEYWGQGTQVTVSS", "polyreactivity (PSR sort gate)": "high polyreactivity"}
{"sequence": "QGQLVESGGCLVQAGGSRRLSCAASGRTFRGNAMGWYRQAPGKERELVPAISRRGGSTYYSDSVKGRFTISRDNAKITVYLQMNSLEPEDTADYYCARDDVDDNSYGNENGTYGYWGQGTQVTVSS", "polyreactivity (PSR sort gate)": "high polyreactivity"}
{"sequence": "QGQLVESGGCLVQEGGSLRLSCAASGRIFWYYTMGWYRQAPGKERELVATIRSGDRKNYADSVKGRFTISLDNAKNTVYLQMNSLKPDDTAVYYCAATRALVNTHRYYYWGQGTQVTVSS", "polyreactivity (PSR sort gate)": "high polyreactivity"}
